In patent CN111153992A (BEIJING CHEST HOSPITAL CAPITAL MEDICAL UNIV; BEIJING …, dated 2020):
Positions count from the first letter of the chain named.

T1: 结核分枝杆菌特异性重组蛋白CFP10 (Mycobacterium tuberculosis, UniProt P9WNK5 1-100)
T1 sequence (looked up): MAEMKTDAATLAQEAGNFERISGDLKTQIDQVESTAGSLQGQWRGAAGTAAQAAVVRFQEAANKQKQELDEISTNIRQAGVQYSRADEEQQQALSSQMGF

T2: 结核分枝杆菌特异性重组蛋白EspC (Mycobacterium tuberculosis, UniProt P9WJD7 1-103)
T2 sequence (looked up): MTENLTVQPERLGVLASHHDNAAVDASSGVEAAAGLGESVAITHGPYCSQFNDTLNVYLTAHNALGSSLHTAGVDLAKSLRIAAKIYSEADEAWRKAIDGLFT

T3: 结核分枝杆菌特异性重组蛋白MPT32 (Mycobacterium tuberculosis, UniProt P9WIR7 40-325)
T3 sequence (looked up): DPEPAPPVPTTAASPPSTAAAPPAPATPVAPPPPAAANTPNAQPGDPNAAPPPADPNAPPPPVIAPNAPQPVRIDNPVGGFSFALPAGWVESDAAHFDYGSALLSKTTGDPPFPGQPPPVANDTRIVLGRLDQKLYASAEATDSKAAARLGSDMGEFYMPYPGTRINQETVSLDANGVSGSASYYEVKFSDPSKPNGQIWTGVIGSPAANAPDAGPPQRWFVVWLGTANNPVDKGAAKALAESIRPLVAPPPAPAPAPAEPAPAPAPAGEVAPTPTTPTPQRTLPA

T4: 结核分枝杆菌特异性重组蛋白38KD (Mycobacterium tuberculosis, UniProt P9WGU1 24-374)
T4 sequence (looked up): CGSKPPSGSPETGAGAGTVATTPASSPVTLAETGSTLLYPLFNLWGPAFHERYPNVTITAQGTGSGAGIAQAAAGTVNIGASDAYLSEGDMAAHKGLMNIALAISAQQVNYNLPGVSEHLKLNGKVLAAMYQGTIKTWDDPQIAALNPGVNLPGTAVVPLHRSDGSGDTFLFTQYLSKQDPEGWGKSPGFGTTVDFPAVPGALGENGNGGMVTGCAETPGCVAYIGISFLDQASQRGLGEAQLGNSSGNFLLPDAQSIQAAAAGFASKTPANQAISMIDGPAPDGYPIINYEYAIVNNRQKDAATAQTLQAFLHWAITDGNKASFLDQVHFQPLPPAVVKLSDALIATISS

T5: 结核分枝杆菌特异性重组蛋白MPT64 (Mycobacterium tuberculosis, UniProt P9WIN9 24-228)
T5 sequence (looked up): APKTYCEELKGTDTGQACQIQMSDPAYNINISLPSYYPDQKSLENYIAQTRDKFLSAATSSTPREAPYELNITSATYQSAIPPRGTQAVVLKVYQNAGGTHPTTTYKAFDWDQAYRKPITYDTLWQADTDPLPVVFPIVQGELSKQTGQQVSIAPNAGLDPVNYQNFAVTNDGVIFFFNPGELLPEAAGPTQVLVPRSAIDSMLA

B1: BJRbL01 (antibody, V domains shown)
VH: QSVEESGGRLVTPGTSLTLTCTVSGFSLSNYDMGWVRQAPGKGLEWIGNIWSNGYTDYASWVNGRFTISKTSSTTMDLKMTSLTTEDMATYFCARGSSGYVGDIWGPGTLVTVSS
VL: DPVLTQTPASVEVAVGGTVTMNCQASHSVYGNNELSWYQQKPGQPPKLLVYKASTLASGVPSRFKGSGSGTQFTLTISDLECDDAAIYYCQGGYWGNRAFGGGTEVVVKG
notes: also called 兔抗LAM单克隆抗体 BJRbL01; 抗LAM抗体
B2: BJRbL03 (antibody, V domains shown)
VH: B1 VH with V3L, S29R, N30S, N49S, G54D, Y55F, I68V, T85S, M88T, A94V
VL: DPMLTQTASSVSAAVGGTVTINCQASQSVYGNNELSWYQQKPGQPPKLLIYKASTLASGVPSRFKASGSGTQFTLTISDLECDDAAIYYCQGGYWGNRAFGGGTKLEIKG
notes: also called 兔抗LAM单克隆抗体 BJRbL03; 抗LAM抗体

Columns and labels:
Test in all cases: indirect ELISA, recombinant protein coated on plate
结核分枝杆菌特异性重组蛋白CFP10 = molecular target: T1, 结核分枝杆菌特异性重组蛋白CFP10
结核分枝杆菌特异性重组蛋白Mtb81 = 结核分枝杆菌特异性重组蛋白Mtb81 (Mycobacterium tuberculosis, UniProt P9WK17 1-741)
结核分枝杆菌特异性重组蛋白EspC = molecular target: T2, 结核分枝杆菌特异性重组蛋白EspC
结核分枝杆菌特异性重组蛋白MPT32 = molecular target: T3, 结核分枝杆菌特异性重组蛋白MPT32
结核分枝杆菌特异性重组蛋白38KD = molecular target: T4, 结核分枝杆菌特异性重组蛋白38KD
结核分枝杆菌特异性重组蛋白MPT64 = molecular target: T5, 结核分枝杆菌特异性重组蛋白MPT64

Chain of 结核分枝杆菌特异性重组蛋白Mtb81 (P9WK17 whole entry): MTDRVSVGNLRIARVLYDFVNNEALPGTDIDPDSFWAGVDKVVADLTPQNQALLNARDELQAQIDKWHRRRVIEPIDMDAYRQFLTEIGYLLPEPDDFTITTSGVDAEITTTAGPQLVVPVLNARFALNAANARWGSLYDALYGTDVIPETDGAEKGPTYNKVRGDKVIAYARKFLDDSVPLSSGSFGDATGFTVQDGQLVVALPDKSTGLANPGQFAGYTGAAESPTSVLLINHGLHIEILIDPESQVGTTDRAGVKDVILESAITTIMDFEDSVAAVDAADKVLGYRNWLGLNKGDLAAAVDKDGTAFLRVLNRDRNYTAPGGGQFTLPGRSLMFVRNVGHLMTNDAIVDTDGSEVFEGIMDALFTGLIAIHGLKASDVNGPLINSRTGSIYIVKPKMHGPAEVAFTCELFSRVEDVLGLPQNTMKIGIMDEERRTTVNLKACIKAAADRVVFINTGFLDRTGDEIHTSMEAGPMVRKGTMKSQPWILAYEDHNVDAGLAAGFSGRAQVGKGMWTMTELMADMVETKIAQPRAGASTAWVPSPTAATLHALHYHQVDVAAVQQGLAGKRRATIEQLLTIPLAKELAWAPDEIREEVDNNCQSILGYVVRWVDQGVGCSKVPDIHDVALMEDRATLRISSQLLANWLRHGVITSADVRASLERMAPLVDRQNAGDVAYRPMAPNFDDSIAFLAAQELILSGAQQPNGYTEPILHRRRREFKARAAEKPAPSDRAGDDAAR

Row | Binder | binding result (结核分枝杆菌特异性重组蛋白CFP10) | binding result (结核分枝杆菌特异性重组蛋白Mtb81) | binding result (结核分枝杆菌特异性重组蛋白EspC) | binding result (结核分枝杆菌特异性重组蛋白MPT32) | binding result (结核分枝杆菌特异性重组蛋白38KD) | binding result (结核分枝杆菌特异性重组蛋白MPT64)
1 | B1 | no binding (tested: protein coated at 5μg/ml) | no binding (tested: protein coated at 5μg/ml) | no binding (tested: protein coated at 5μg/ml) | no binding (tested: protein coated at 5μg/ml) | no binding (tested: protein coated at 5μg/ml) | no binding (tested: protein coated at 5μg/ml)
2 | B2 | no binding (tested: protein coated at 5μg/ml) | no binding (tested: protein coated at 5μg/ml) | no binding (tested: protein coated at 5μg/ml) | no binding (tested: protein coated at 5μg/ml) | no binding (tested: protein coated at 5μg/ml) | no binding (tested: protein coated at 5μg/ml)
